Data set [1] addresses T1, L-threonine dehydrogenase (TDH) (Escherichia coli, UniProt P07913).
T1 sequence (P07913 1-341): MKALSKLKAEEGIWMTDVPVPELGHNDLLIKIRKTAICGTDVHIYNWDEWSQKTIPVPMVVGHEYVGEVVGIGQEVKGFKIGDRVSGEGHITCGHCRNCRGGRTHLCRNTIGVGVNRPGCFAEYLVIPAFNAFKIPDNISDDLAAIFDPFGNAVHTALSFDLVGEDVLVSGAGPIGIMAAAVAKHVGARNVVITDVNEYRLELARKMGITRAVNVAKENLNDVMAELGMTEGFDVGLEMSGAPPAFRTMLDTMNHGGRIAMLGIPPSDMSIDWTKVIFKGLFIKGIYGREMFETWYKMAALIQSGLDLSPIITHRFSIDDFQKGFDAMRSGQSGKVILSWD
In words: fluorimetric NADH formation assay, titration at […] L-Thr and […] NAD+; also affinity chromatography from E. coli lysate on immobilized compound […]. The format is biochemical.

Substrate in data set [2]: NC(=O)c1ccc[n+]([C@@H]2O[C@H](COP(=O)([O-])OP(=O)(O)OC[C@H]3O[C@@H](n4cnc5c(N)ncnc54)[C@H](O)[C@@H]3O)[C@@H](O)[C@H]2O)c1
The data set can be described thus: purified protein. The format is biochemical, Escherichia coli. To be noted: Zn2+ non-cooperative binding; pH 8.4; 25.0 °C; varied: cofactor.

Substrate in data set [3]: C[C@@H](O)[C@H](N)C(=O)O
The data set can be described thus: purified protein. The settings on record: NAD+; Zn2+ cooperative binding of L-Thr; pH 8.4; 25.0 °C. The format is biochemical, Escherichia coli.

Counter-ions that a name gives are not always drawn.

As for `NCCc1c[nH]n(-c2ccccn2)c1=O` [compound 1, 4-(2-aminoethyl)-2-(pyridin-2-yl)-1,2-dihydro-3H-pyrazol-3-one dihydrochloride], it took 50 ± 10 µM to reach a half-maximal effect in data set [1] (EC50).

B1: L-threonine dehydrogenase (TDH) (Escherichia coli K-12) (protein)
chain: T1 sequence (P07913 1-341)
For the molecule B1, in “purified protein [2]”, the K0.5 worked out at 43 ± 3 µM and the Vmax was 3.42 µM/min. Also, in “purified protein [3]”, the K0.5 is listed as 280 ± 10 µM and the Vmax worked out at 6 µM/min.

The term EC50 denotes the concentration that produces a half-maximal response. A low value points to an effect from little substance. In general, Vmax refers to the top rate of the reaction or transport when substrate is in excess.
